According to patent publication US20090203616A1:
No end group written: not given here.

Target: α9α10 subtype of the nicotinic acetylcholine receptor (nAChR) (rat) (UniProt P43144)
Experiment: cell-based or functional assay

Chain of α9α10 subtype of the nicotinic acetylcholine receptor (nAChR) (rat) (P43144 26-479, chain 1 of 2): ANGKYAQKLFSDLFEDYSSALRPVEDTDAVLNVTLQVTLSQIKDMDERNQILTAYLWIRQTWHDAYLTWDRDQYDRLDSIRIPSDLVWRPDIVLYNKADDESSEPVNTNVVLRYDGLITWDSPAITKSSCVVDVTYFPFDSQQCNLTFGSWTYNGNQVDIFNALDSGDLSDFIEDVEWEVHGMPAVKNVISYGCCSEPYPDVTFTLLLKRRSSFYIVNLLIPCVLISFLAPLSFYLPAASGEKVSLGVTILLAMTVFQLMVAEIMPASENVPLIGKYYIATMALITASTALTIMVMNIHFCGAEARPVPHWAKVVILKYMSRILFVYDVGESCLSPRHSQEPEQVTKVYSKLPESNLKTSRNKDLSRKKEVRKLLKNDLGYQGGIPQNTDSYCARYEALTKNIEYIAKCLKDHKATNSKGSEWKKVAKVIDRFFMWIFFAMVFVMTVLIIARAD
Chain of α9α10 subtype of the nicotinic acetylcholine receptor (nAChR) (rat) (Q9JLB5 25-447, chain 2 of 2, further chain): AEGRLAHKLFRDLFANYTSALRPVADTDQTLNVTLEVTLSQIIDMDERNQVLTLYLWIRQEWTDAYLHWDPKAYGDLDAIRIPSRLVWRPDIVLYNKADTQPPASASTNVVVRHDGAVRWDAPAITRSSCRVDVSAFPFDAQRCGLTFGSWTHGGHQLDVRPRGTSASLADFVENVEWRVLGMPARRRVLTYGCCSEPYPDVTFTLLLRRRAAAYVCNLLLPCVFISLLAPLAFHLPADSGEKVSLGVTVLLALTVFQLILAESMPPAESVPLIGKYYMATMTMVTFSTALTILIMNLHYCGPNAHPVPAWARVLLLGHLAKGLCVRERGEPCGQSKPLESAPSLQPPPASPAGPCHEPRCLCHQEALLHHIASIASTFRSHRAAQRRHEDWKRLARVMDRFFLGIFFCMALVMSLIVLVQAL

## GCCSDPRCRYRC (not fully specified (C-terminus); ends and bridges not checked) [RgIA-Cys-amide]
  IC50 (activity on α9α10 nAChR, oocytes as in Example 1): 7.8 nM
